# Reference: article PMC3877365
# Experiments:
# [1] = biological target: BCRZFP-orfA fusion protein (walleye dermal sarcoma virus orfA protein fused to the BCR-ABL zinc finger protein) (walleye dermal sarcoma virus (WDSV)); assay: two-hybrid; ZFN-Y2H, LacZ reporter: relative β-galactosidase activity (ONPG assay) of colonies in liquid medium, wild-type Gal4 (pADH-Gal4) set to 100%
# [2] = biological target: BCRZFP-orfA fusion protein (walleye dermal sarcoma virus orfA protein fused to the BCR-ABL zinc finger protein) (walleye dermal sarcoma virus (WDSV)); assay: two-hybrid; ZFN-Y2H: bait fused to BCR-ZFP, prey fused to FokI, co-transformed into AH109 carrying the reporter pADH-Gal4-BS; growth on SD plates lacking histidine and adenine, 30°C, at least three days; colonies counted against non-selective plates; spotting of dilutions
# BCRZFP-orfA fusion protein (walleye dermal sarcoma virus orfA protein fused to the BCR-ABL zinc finger protein) (walleye dermal sarcoma virus (WDSV)), sequence (Q88939 whole entry, the tested form may be a part): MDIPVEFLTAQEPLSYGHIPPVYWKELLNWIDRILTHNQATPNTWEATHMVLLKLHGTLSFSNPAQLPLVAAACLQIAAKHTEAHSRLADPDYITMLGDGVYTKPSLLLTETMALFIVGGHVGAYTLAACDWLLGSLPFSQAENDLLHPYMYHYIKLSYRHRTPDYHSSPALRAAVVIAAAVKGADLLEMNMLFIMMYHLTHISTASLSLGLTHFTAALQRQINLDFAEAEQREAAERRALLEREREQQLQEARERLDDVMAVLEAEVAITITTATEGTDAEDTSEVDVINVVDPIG
# FokI-E2F5 fusion protein (human E2F5 fused to the FokI nuclease domain) (natural protein), sequence (Q15329 whole entry, the tested form may be a part): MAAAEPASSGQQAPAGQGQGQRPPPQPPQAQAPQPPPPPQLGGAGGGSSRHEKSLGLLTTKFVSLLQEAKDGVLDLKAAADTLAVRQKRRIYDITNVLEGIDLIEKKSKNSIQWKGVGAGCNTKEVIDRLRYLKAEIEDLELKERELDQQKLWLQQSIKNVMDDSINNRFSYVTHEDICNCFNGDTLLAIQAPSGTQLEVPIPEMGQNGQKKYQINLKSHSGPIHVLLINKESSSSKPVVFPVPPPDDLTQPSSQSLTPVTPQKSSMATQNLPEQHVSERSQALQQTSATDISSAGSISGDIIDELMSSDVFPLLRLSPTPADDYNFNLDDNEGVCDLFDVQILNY
substance,measurement,setting,value
FokI-E2F5 fusion protein (human E2F5 fused to the FokI nuclease domain) (natural protein),relative β-galactosidase activity,[1],84.3%
same,percent of transformants surviving on selective medium,[2],22.5%
